The text below walks through data of patent US20220002389A1.

The target in assay [1] is HIV-1 BaL strain envelope protein (gp120) on BaL-infected CEM.NKR-CCR5 (NKR24) cells (HIV-1 BaL strain). Put plainly: flow cytometry on BaL-infected NKR24 cells; antibody at 0.032 µg/mL. A general note: A flow cytometer gives signals particle by particle.
For assay [2] the target is unchanged. Put plainly: flow cytometry on BaL-infected NKR24 cells; antibody at 100 µg/mL.
Assay [3] shares this target. Description: flow cytometry on BaL-infected NKR24 cells; antibody at 0.8 µg/mL.
Assay [4] shares this target. Put plainly: flow cytometry on BaL-infected NKR24 cells; antibody at 0.16 µg/mL.
The target is the same in assay [5]. Description: flow cytometry on BaL-infected NKR24 cells; antibody at 20 µg/mL.
The target is the same in assay [6]. Put plainly: cell-based or functional assay.
Assay [7] shares this target. Put plainly: flow cytometry on BaL-infected NKR24 cells; antibody at 4 µg/mL.

B1: SW-1C10 (1C10 antibody produced in the cocoons of transgenic silkworms) (antibody, human IgG1, kappa, V domains shown)
VH: EVQLVESGGGVVQPGRSLRVSCVASGFMFSNYAMHWVRQTAGKGLEWVAIISNDGSDKYYADSVQGRFTVSRDNSQNTLFLQMSGLRPEDSGLYYCARDLDQTIPDLTAPAFEVWGQGTMVTVSS
VL: DIVMTQSPLSLAVTPGEPASISCRSSQSLLHSDGNNYLDWYLQKPGQSPQLLIYLTSNRASGVPDRFSGSGSGTDFTLKISRVEAEDVGVYFCMQSLQTWTFGQGTKVEIKR
modifications: N-glycans without core fucose (silkworm-produced)
As for B1, the MFI in assay [1] was determined as 779 MFI; in assay [2], 1900 MFI; in assay [3], 1260 MFI; in assay [4] it was 1080 MFI; in assay [5] it was 1640 MFI; in assay [7], 1440 MFI. The molecule further gave an IC50 (50% inhibitory concentration) of infection of TZM-bl cells by BaL virus, luciferase RLU; 'Dose at Y = 50' in assay [6] of 0.108 µg/mL.

B2: 293A-1C10 (1C10 antibody of 293A origin) (antibody, human IgG1, kappa, V domains shown)
VH: EVQLVESGGGVVQPGRSLRVSCVASGFMFSNYAMHWVRQTAGKGLEWVAIISNDGSDKYYADSVQGRFTVSRDNSQNTLFLQMSGLRPEDSGLYYCARDLDQTIPDLTAPAFEVWGQGTMVTVSS
VL: DIVMTQSPLSLAVTPGEPASISCRSSQSLLHSDGNNYLDWYLQKPGQSPQLLIYLTSNRASGVPDRFSGSGSGTDFTLKISRVEAEDVGVYFCMQSLQTWTFGQGTKVEIKR
For B2, the MFI in assay [1] is 983 MFI; in assay [2], 1780 MFI; in assay [3], 1290 MFI; in assay [4] it was 1210 MFI; in assay [5], 1780 MFI; in assay [7], 1530 MFI. The IC50 (50% inhibitory concentration) of infection of TZM-bl cells by BaL virus, luciferase RLU; 'Dose at Y = 50' in assay [6] was found to be 0.133 µg/mL.
